From article PMC8911618, “Application of β-Glucosidase in a Biphasic System for the Efficient Conversion of Polydatin to Resveratrol” (Molecules, 2022)

System: T1, O=[N+]([O-])c1ccc(O[C@@H]2O[C@H](CO)[C@@H](O)[C@H](O)[C@H]2O)cc1
T1 construct: signal peptide removed, starts at residue 29 with added Met; C-terminal His6 (reverse primer), pQE30, E. coli JM109, Ni-NTA
Test: purified protein
Type: biochemical, Sphingomonas sp. ATCC 31555
Conditions: McIlvaine buffer, pH 5.5, 45 °C, 0.1–20 mM pNPG

Work on SpBGL1 (Sphingomonas sp. ATCC 31555) yielded a Km of 13.09 ± 3.43 mM.
